From publication PMC11353897, “Biochemical and structural elucidation of the L-carnitine degradation pathway of the human pathogen Acinetobacter baumannii” (Frontiers in Microbiology, 2024)
Each block holds one molecule with its values, some of them ahead of it.

Assays:
[1] = target: T1, D-malate dehydrogenase (MDH) (Acinetobacter baumannii, UniProt A0ABX6CCN1); experiment: spectroscopic NADH formation assay ([…] nm) with D-malate, varied inhibitor concentrations; format: biochemical
T1 construct: gene dmlA; N-terminal His-tag fusion, tetramer
T1 sequence (A0ABX6CCN1 1-370): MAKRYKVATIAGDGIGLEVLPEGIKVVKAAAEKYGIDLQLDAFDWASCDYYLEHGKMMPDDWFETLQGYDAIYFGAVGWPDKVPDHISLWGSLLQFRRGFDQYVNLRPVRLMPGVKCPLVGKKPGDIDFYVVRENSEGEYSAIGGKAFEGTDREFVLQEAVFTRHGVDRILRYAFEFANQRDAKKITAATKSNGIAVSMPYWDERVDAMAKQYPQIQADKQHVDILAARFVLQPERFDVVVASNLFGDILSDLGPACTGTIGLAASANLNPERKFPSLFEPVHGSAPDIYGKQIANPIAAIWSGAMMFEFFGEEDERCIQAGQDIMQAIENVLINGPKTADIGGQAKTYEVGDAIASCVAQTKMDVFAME

[2] = target: T2, carnitine monooxygenase oxygenase component CntA (Acinetobacter baumannii, UniProt D0C9N6); experiment: MBTH aldehyde formation assay (specific activity); format: biochemical
T2 construct: CntA after on-column cleavage of GST tag; with CntB (reductase)

[3] = target: T2, carnitine monooxygenase oxygenase component CntA; experiment: MBTH aldehyde formation assay and L-carnitine depletion assay (specific activity); format: biochemical
[4] = target: T3, malic semialdehyde dehydrogenase (MSA-DH) (Acinetobacter baumannii, UniProt D0C9N7); experiment: MSA depletion (MBTH) and NADH formation assays with […] NAD+; format: biochemical
T3 construct: gene HMPREF0010_01350; N-terminal His-thioredoxin fusion, tetramer
T3 sequence (D0C9N7 1-483): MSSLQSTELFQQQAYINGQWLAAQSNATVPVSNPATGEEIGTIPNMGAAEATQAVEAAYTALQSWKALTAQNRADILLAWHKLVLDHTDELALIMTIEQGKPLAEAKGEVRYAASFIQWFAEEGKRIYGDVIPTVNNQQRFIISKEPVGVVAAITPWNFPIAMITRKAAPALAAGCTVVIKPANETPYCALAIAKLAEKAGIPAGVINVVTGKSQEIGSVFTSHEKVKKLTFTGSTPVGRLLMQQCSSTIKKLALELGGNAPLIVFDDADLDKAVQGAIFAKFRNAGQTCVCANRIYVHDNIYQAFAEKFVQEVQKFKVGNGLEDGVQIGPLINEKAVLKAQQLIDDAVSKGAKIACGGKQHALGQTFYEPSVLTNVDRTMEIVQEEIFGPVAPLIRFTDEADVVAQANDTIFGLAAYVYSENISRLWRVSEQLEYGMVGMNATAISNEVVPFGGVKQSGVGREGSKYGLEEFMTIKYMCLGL

[5] = target: malic semialdehyde dehydrogenase (MSA-DH) from A. baumannii, N-terminal His-thioredoxin fusion (Acinetobacter baumannii ATCC 19606); experiment: SEC; analytical size exclusion chromatography, Superdex 200 increase 5/150 GL, 20 mM HEPES-NaOH pH 7.5, 150 mM NaCl, 0.45 mL/min, 50 uL of 3 mg/mL protein injected, calibrated with protein standards
[6] = target: malic semialdehyde dehydrogenase (MSA-DH) from A. baumannii, N-terminal His-thioredoxin fusion (Acinetobacter baumannii ATCC 19606); experiment: mass photometry; Refeyn TwoMP, 25 nM protein in PBS, 60 s movies, calibrated against NativeMark standard
[7] = target: malic semialdehyde dehydrogenase (MSA-DH) from A. baumannii, N-terminal His-thioredoxin fusion (Acinetobacter baumannii ATCC 19606); experiment: crystal structure; X-ray, 2.6 A, space group P212121, 12 chains (three tetramers) in the asymmetric unit; protein at 40 mg/mL supplemented with 7 mM D-malate
[8] = target: D-malate dehydrogenase (MDH) from A. baumannii, N-terminal His-tag fusion (Acinetobacter baumannii ATCC 19606); experiment: mass photometry; Refeyn TwoMP, 25 nM protein in PBS, 60 s movies, calibrated against NativeMark standard
[9] = substrate: O=C[C@H](O)CC(=O)O; experiment: purified protein; format: biochemical, Acinetobacter baumannii; conditions: NAD+ or NADP+ proposed from model: Arg166, Arg284, Ser447 bind the carboxylate; catalytic Cys290 (covalent hemithioacetal intermediate) and Glu256
[10] = substrate: O=C(O)C[C@@H](O)C(=O)O; experiment: purified protein; format: biochemical, Acinetobacter baumannii; conditions: NAD+; Mg2+ or Mn2+

Molecule: O=C(O)C(O)C(O)C(=O)O (stereo not drawn) [meso-tartrate]
Ki [1]: 320 ± 80 µM

Molecule: C[N+](C)(C)CCCC(=O)[O-] [γ-butyrobetaine]
MBTH aldehyde formation assay (specific activity) [2]: 2.1 ± 0.2 µmol/min/mg

Molecule: C[N+](C)(C)C[C@H](O)CC(=O)[O-] [L-carnitine]
MBTH aldehyde formation assay and L-carnitine depletion assay (specific activity) [3]: 2.8 ± 0.2 µmol/min/mg

Molecule: NC(=O)c1ccc[n+]([C@@H]2O[C@H](COP(=O)([O-])OP(=O)(O)OC[C@H]3O[C@@H](n4cnc5c(N)ncnc54)[C@H](O)[C@@H]3O)[C@@H](O)[C@H]2O)c1 [NAD^+]
MSA depletion (MBTH) and NADH formation assays with 2 mM NAD+ [4]: MSA-DH can use NAD^+ or NADP^+ as a cofactor for the oxidation of the MSA substrate

Molecule: malic semialdehyde dehydrogenase (MSA-DH) from A. baumannii, N-terminal His-thioredoxin fusion (enzyme)
stoichiometry N [5]: 4
stoichiometry N [6]: 4
stoichiometry N [7]: 4

stoichiometry N [8]: 4
Molecule: D-malate dehydrogenase (MDH) from A. baumannii, N-terminal His-tag fusion (enzyme)

B1: malic semialdehyde dehydrogenase (MSA-DH) (Acinetobacter baumannii ATCC 19606 = CIP 70.34 = JCM 6841) (protein)
chain: T3 sequence (D0C9N7 1-483)
notes: N-terminal His-thioredoxin fusion, tetramer
Km [9]: 2.6 ± 0.14 mM

B2: D-malate dehydrogenase (MDH) (Acinetobacter baumannii ATCC 19606 = CIP 70.34 = JCM 6841) (protein)
chain: T1 sequence (A0ABX6CCN1 1-370)
notes: N-terminal His-tag fusion, tetramer
Km [10]: 2.1 ± 0.2 mM
